Data published in patent publication US9187525B2, “Methods of treating ophthalmic diseases using NPR-B agonists” (Shire Orphan Therapies GmbH, dated 2015).
Numbered stars: 1 amine (or outer) side, 2 acyl side, 3 side chain; on linkers, the order of the positions; unused ones are H or OH. Square brackets hold non-standard residues; d marks the D form. Ends that are not written are not given here. * marks the point of attachment. Tap(Ae) = (2S,4R)-4-(2-aminoethylamino)pyrrolidine-2-carboxylic acid, O=C([C@@H]1C[C@@H](NCCN[*:3])CN1[*:1])[*:2]; Apc(Ae) = 4-amino-1-(2-amino-ethyl)-piperidine-4-carboxylic acid, O=C(C1(N[*:1])CCN(CCN[*:3])CC1)[*:2]; Apc(Et) = 4-amino-1-ethyl-piperidine-4-carboxylic acid, CCN1CCC(N[*:1])(C(=O)[*:2])CC1; Apc(Me) = 4-amino-1-methyl-piperidine-4-carboxylic acid, CN1CCC(N[*:1])(C(=O)[*:2])CC1; Tap(Ap) = 4-(3-amino-propylamino)-pyrrolidine-2-carboxylic acid; Pro(trans-4-NH2) = O=C([C@@H]1C[C@@H](N[*:3])CN1[*:1])[*:2]; Sni = (S)-nipecotic acid, O=C([C@H]1CCCN([*:1])C1)[*:2]; Eat = 2,3-dihydro-1H-indole-2-carboxylic acid; Oic = O=C(O)[C@@H]1C[C@@H]2CCCC[C@@H]2N1; dDap(Me2) = CN(C)C[C@@H](N)C(=O)O; Hyp = O=C(O)[C@@H]1C[C@@H](O)CN1; Tic = O=C(O)[C@@H]1Cc2ccccc2CN1; NMeL = CN[C@@H](CC(C)C)C(=O)O; AR‑201‑58 = not defined here; AR‑201‑62 = not defined here; AR‑201‑68 = not defined here; AR‑201‑69 = not defined here; AR‑201‑72 = not defined here; AR‑201‑73 = not defined here; Octanoyl = CCCCCCCC(=O)*; Thz = O=C(O)[C@@H]1CSCN1; Aze = O=C(O)[C@@H]1CCN1; Nbt = 4-butyl-thiazole; Sbt = 5-butyl-thiazole; Aib = CC(C)(N)C(=O)O

T1: natriuretic peptide receptor-B (human)
T1 chain: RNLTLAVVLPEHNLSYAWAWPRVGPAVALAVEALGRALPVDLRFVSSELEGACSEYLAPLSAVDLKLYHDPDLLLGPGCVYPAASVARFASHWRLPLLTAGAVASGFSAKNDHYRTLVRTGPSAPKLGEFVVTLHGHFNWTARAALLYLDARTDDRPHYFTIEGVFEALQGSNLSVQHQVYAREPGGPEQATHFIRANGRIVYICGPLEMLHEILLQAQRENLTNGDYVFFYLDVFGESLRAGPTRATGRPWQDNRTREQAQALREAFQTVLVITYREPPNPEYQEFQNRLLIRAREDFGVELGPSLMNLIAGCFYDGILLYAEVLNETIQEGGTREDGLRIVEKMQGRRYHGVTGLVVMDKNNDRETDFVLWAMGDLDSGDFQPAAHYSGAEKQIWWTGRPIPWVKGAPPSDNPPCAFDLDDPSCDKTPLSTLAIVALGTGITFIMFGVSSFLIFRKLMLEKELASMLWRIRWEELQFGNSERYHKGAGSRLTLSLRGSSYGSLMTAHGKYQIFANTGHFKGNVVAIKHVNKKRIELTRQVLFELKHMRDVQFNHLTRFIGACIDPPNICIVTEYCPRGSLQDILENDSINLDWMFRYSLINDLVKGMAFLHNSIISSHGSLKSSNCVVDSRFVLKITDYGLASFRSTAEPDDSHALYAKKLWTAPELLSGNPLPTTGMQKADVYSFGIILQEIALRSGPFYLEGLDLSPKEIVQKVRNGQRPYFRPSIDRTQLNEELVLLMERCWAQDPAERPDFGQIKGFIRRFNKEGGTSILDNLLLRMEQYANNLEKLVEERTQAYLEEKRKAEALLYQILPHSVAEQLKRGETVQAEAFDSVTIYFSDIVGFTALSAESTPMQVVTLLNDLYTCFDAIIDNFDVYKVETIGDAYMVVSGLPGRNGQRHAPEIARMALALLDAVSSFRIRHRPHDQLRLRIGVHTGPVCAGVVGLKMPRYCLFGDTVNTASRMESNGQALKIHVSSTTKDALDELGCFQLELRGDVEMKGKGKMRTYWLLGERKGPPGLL


Target: T1, natriuretic peptide receptor-B
Assay: cell-based or functional assay

Binder | EC50 group, cGMP in GTM-3 cells
Nbt-[Sni]F[dL]L[Hyp][NMeL]DRI-NH2 [JAL-1383] | ≤ 5 µM
XXFGLKLDRI (HELM PEPTIDE1{[CCCCCC(=O)[*:2]].[O=C(Cc1cccc(N[*:1])c1)[*:2]].F.G.L.K.L.D.R.I.[am]}$$$$V2.0; SMILES CCCCCC(=O)Nc1cccc(CC(=O)N[C@@H](Cc2ccccc2)C(=O)NCC(=O)N[C@@H](CC(C)C)C(=O)N[C@@H](CCCCN)C(=O)N[C@@H](CC(C)C)C(=O)N[C@@H](CC(=O)O)C(=O)N[C@@H](CCCNC(=N)N)C(=O)N[C@H](C(N)=O)[C@@H](C)CC)c1) [JAL-0649] | ≤ 15 µM
[AR‑201‑68]F[dR]L[Hyp][NMeL]DRI-NH2 (reading uncertain; also: printed as (AR-201-68)-Phe-arg-Leu-Hyp-Nml-Asp-Arg-Ile-NH2) [JAL-1381] | ≤ 5 µM
Octanoyl-[dA]F[dR]L[Hyp]PDRI-NH2 [JAL-1387] | ≤ 15 µM
[AR‑201‑72]F[dL]L[Hyp][NMeL]DRI-NH2 (reading uncertain; also: printed as (AR-201-72)-Phe-leu-Leu-Hyp-Nml-Asp-Arg-Ile-NH2) [JAL-1376] | ≤ 15 µM
[AR‑201‑73]F[dR]L[Hyp][NMeL]DRI-NH2 (reading uncertain; also: printed as (AR-201-73)-Phe-arg-Leu-Hyp-Nml-Asp-Arg-Ile-NH2) [JAL-1379] | ≤ 5 µM
Octanoyl-[dA]F[dR]L[Hyp][Eat]DRI-NH2 [JAL-1394] | ≤ 15 µM
[AR‑201‑68]F[dL]L[Hyp][NMeL]DRI-NH2 (reading uncertain; also: printed as (AR-201-68)-Phe-leu-Leu-Hyp-Nml-Asp-Arg-Ile-NH2) [JAL-1380] | ≤ 1 µM
Octanoyl-[dA]F[dL]L[Hyp][Oic]DRI-NH2 [JAL-1386] | ≤ 5 µM
[AR‑201‑72]F[dR]L[Hyp][NMeL]DRI-NH2 (reading uncertain; also: printed as (AR-201-72)-Phe-arg-Leu-Hyp-Nml-Asp-Arg-Ile-NH2) [JAL-1377] | ≤ 15 µM
[AR‑201‑62]F[dL]L[Hyp][NMeL]DRI-NH2 (reading uncertain; also: printed as (AR-201-62)-Phe-leu-Leu-Hyp-Nml-Asp-Arg-Ile-NH2) [JAL-1374] | ≤ 5 µM
Sbt-[Sni]F[dL]L[Hyp][NMeL]DRI-NH2 [JAL-1382] | ≤ 1 µM
[AR‑201‑69]F[dL]L[Hyp][NMeL]DRI-NH2 (reading uncertain; also: printed as (AR-201-69)-Phe-leu-Leu-Hyp-Nml-Asp-Arg-Ile-NH2) [JAL-1375] | ≤ 5 µM
[AR‑201‑58]F[dL]L[Hyp][NMeL]DRI-NH2 (reading uncertain; also: printed as (AR-201-58)-Phe-leu-Leu-Hyp-Nml-Asp-Arg-Ile-NH2) [JAL-1373] | ≤ 5 µM
XXFGLKLDRI (HELM PEPTIDE1{[CCCCCC(=O)[*:2]].[O=C(C1CCN([*:1])CC1)[*:2]].F.G.L.K.L.D.R.I.[am]}$$$$V2.0; SMILES CCCCCC(=O)N1CCC(C(=O)N[C@@H](Cc2ccccc2)C(=O)NCC(=O)N[C@@H](CC(C)C)C(=O)N[C@@H](CCCCN)C(=O)N[C@@H](CC(C)C)C(=O)N[C@@H](CC(=O)O)C(=O)N[C@@H](CCCNC(=N)N)C(=O)N[C@H](C(N)=O)[C@@H](C)CC)CC1) [JAL-0651] | ≤ 15 µM
[AR‑201‑73]F[dL]L[Hyp][NMeL]DRI-NH2 (reading uncertain; also: printed as (AR-201-73)-Phe-leu-Leu-Hyp-Nml-Asp-Arg-Ile-NH2) [JAL-1378] | ≤ 5 µM
Octanoyl-[Sni]F[dL]L[Tap(Ae)][NMeL]DRI-NH2 [JAL-1371] | ≤ 1 µM
XXFGLKLDRI (HELM PEPTIDE1{[CCCCCC(=O)[*:2]].[O=C(Cc1ccc(N[*:1])cc1)[*:2]].F.G.L.K.L.D.R.I.[am]}$$$$V2.0; SMILES CCCCCC(=O)Nc1ccc(CC(=O)N[C@@H](Cc2ccccc2)C(=O)NCC(=O)N[C@@H](CC(C)C)C(=O)N[C@@H](CCCCN)C(=O)N[C@@H](CC(C)C)C(=O)N[C@@H](CC(=O)O)C(=O)N[C@@H](CCCNC(=N)N)C(=O)N[C@H](C(N)=O)[C@@H](C)CC)cc1) [JAL-0650] | ≤ 15 µM
Octanoyl-[Sni]F[dL]L[Tap(Ap)][NMeL]DRI-NH2 [JAL-1372] | ≤ 1 µM
Octanoyl-[dA]F[dR]L[Hyp][Aze]DRI-NH2 [JAL-1393] | ≤ 15 µM

Next, values leading:

EC50 group, cGMP in GTM-3 cells | Binder
≤ 1 µM | Octanoyl-[Sni]F[dDap(Me2)]L[Pro(trans-4-NH2)][NMeL]VRI-NH2 [JAL-1403]
≤ 5 µM | Octanoyl-[Sni]F[dDap(Me2)]L[Hyp][NMeL]VRI-NH2 [JAL-1402]
≤ 1 µM | Octanoyl-[Sni]F[dL]L[Pro(trans-4-NH2)][NMeL]VRI-NH2 [JAL-1401]
≤ 5 µM | Octanoyl-[dA]F[Apc(Ae)]A[dE]L[Hyp][NMeL]DRI-NH2 [JAL-1408]
≤ 1 µM | Octanoyl-[Sni]F[dDap(Me2)]L[Pro(trans-4-NH2)][NMeL]VRI-NH2 [JAL-1405]
≤ 15 µM | Octanoyl-[Sni]F[dDap(Me2)]L[Hyp][NMeL]VRI-NH2 [JAL-1400]
≤ 5 µM | Octanoyl-[dA]F[dR]L[Hyp][Tic]DRI-NH2 [JAL-1396]
≤ 5 µM | Octanoyl-[Sni]F[dL]L[Hyp][NMeL]VRI-NH2 [JAL-1399]
≤ 1 µM | Octanoyl-[dA]F[Apc(Me)]M[dE]L[Hyp][NMeL]DRI-NH2 [JAL-1406]
≤ 1 µM | Octanoyl-[Sni]F[dL]L[Hyp][NMeL]VRI-NH2 [JAL-1398]
≤ 15 µM | Octanoyl-[dA]F[dR]L[Hyp][Thz]DRI-NH2 [JAL-1395]
≤ 5 µM | Octanoyl-[Sni]F[dL]L[Pro(trans-4-NH2)][NMeL]VRI-NH2 [JAL-1404]
≤ 1 µM | Octanoyl-[dA]F[Apc(Et)]E[dT]L[Hyp][NMeL]DRI-NH2 [JAL-1407]
≤ 5 µM | Octanoyl-[dA]F[dL]L[Hyp][NMeL]DR[Aib]-NH2 [JAL-1413]
